Data as given in article doi:10.1101/2020.03.25.005199.

Target: Orai1-GFP (UniProt Q96D31)
Experiment: FRET or BRET

UniProt Q96D31, sequence (Q96D31 whole entry): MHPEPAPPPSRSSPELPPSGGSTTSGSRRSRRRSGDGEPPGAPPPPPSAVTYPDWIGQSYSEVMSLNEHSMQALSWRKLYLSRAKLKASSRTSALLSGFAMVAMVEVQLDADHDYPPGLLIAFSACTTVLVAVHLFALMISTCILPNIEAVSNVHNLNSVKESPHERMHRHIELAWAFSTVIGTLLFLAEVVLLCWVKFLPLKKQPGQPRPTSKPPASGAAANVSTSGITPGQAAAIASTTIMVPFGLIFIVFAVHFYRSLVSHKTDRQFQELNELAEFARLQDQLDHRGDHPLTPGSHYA

- E-FRET: 0.26
Substance: STIM1A-mCherry (from UniProt Q13586) (natural protein)
